± gives the standard deviation of the averaged measurements.
Test system: ATP
Assay: switch fluorescence ratio, 500 uM ATP over buffer (Cy3 cluster intensity, sum of 5 cycles each) (fold (ratio)); higher = stronger signal-on switching upon ATP binding; sequences stand for … in TCGTCGGCAGCGTCAGATGTGTATAAGAGACAGTTTTTTTTTTTTTTTTTTTTTTTTT…TC
Settings: aptamer strand: ATP DNA aptamer (quencher-CACCTGGGGGAGTATTGCGGAGGAAGG + anchor), 100 nM annealed; ATP concentration: 500 uM
Summary of the method: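 Cy3-labelled switching-strand clusters on a modified Illumina MiSeq flow-cell were annealed to 100 nM quencher-labelled ATP aptamer, imaged in selection buffer, then imaged after 15 min with 500 uM ATP at 22 °C. Five buffer/ATP cycles ran, with NaOH stripping and re-annealing between them. The fluorescence ratio is summed target-cycle over summed buffer-cycle Cy3 intensity per cluster, averaged per switch-domain sequence. Clusters outside 100-1000 RFU were excluded.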
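Further: ATP exposure 15 min at 22 °C before imaging.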

Row | Sequence | switch fluorescence ratio
1 | TATGGGTCGG | 1 ± 0.043
2 | GTTAGTTTTT | 0.986 ± 0.02
3 | CTTGCCGATT | 0.968 ± 0.029
4 | CGTACATGT | 1.02 ± 0.024
5 | AAATTGGGTT | 0.9768 ± 0.0091
6 | TGTCCTTAAA | 0.9898 ± 0.0039
7 | CTGCTAATAT | 1.73 ± 0.14
8 | TTGGAAACGT | 1.06 ± 0.067
9 | TTCAGTGTCG | 1.01 ± 0.073
10 | CTCATTTGGT | 0.989 ± 0.028
11 | CGGTACGTTT | 1.007 ± 0.0015
12 | TGGGGTTCGT | 0.998 ± 0.066
13 | TGAGTACGTC | 1.06 ± 0.14
14 | CTTTAATTTT | 1.01 ± 0.055
15 | AAGGGGAATT | 1.01 ± 0.049
16 | ATTGTTTTTC | 1.04 ± 0.073
17 | AGGTAGGCGG | 0.969 ± 0.055
18 | GCGAGCGATG | 0.9988 ± 0.0062
19 | CGGAAGATAG | 1.027 ± 0.0066
20 | GACCGATGGG | 1.01 ± 0.013
21 | ACCGGGGCTC | 1.05 ± 0.052
22 | ACTGATCTGA | 0.987 ± 0.04
23 | ACCTTGGTGT | 1.01 ± 0.053
24 | TTTCGACCTG | 0.9871 ± 0.0046
25 | AATAGCAGGA | 1.02 ± 0.02

Row | Sequence | switch fluorescence ratio
26 | AAATAAAAAC | 1.08 ± 0.044
27 | GTGGGTGTGG | 1.02 ± 0.022
28 | GATCAGAGGT | 1 ± 0.029
29 | TAAGTCGTGG | 0.9735 ± 0.0019
30 | CGGAGCAGGT | 2.09 ± 0.42
31 | CGGAGCCAGG | 1.43 ± 0.02
32 | TCACGGTTGC | 1.04 ± 0.016
33 | AATGGCTAGG | 1.01 ± 0.014
34 | TCAAAATATA | 0.987 ± 0.061
35 | GGGCTATGTC | 1.01 ± 0.038
36 | GGGTTCAAGG | 0.995 ± 0.048
37 | TTTAATGA | 0.976 ± 0.011
38 | TGGTAATAGT | 1.02 ± 0.038
39 | CAGAAGTCTC | 1 ± 0.014
40 | GGGGGAACTA | 0.989 ± 0.019
41 | TTGTTTAGGA | 0.9763 ± 0.0012
42 | GATAATAGGC | 1 ± 0.06
43 | GGCTTGGGCG | 0.983 ± 0.061
44 | TTTTGGACTA | 1.05 ± 0.081
45 | TTTTACGTGA | 1.057 ± 0.0092
46 | GGTTGTGAAG | 0.994 ± 0.043
47 | GGATGCTAGA | 0.996 ± 0.024
48 | TTTGGGGGAC | 0.984 ± 0.05
49 | GAATATGAGA | 0.9629 ± 0.0051
50 | GCCATCAGAG | 0.973 ± 0.0044

Row | Sequence | switch fluorescence ratio
51 | AGGCCGGAAT | 1.27 ± 0.46
52 | CAGGTTATGG | 0.958 ± 0.042
53 | TATTGTCTAC | 0.9901 ± 0.0019
54 | AGCTTGGGTT | 0.98 ± 0.018
55 | TATTCTAGTA | 1.01 ± 0.022
56 | ATCGTAGGTT | 0.972 ± 0.015
57 | GGGGCAGGGA | 0.98 ± 0.052
58 | ATTATGTCCA | 0.96991 ± 0.00059
59 | AAATAACGAG | 1 ± 0.036
60 | AAAATACAGA | 1.08 ± 0.17
61 | ATTGAACGTT | 0.979 ± 0.015
62 | GTGCCCCAAG | 1 ± 0.015
63 | TTTTTGGGGA | 1 ± 0.025
64 | AATGATTGAA | 0.968 ± 0.023
65 | AGGGGGCCTT | 1.0113 ± 0.00015
66 | AGACAGGAGA | 0.985 ± 0.019
67 | TCAAGATAGG | 1.014 ± 0.0028
68 | GGCATAACAC | 1.093 ± 0.0088
69 | ACGGTTTGGC | 0.939 ± 0.063
70 | GCCAGTTTGT | 0.9807 ± 0.0052
71 | TGTTCTGGGG | 1.01 ± 0.019
72 | CCTAGTACCG | 0.992 ± 0.069
73 | GAGCAGGTTT | 1.6 ± 0.92
74 | TTATCAGTTG | 1.01 ± 0.057
75 | TGCGTTCGGC | 0.963 ± 0.041

Row | Sequence | switch fluorescence ratio
76 | CATGATAGTT | 0.997 ± 0.017
77 | TTTATTTTG | 0.95563 ± 0.00051
78 | TTTCGTAGGT | 1.02 ± 0.022
79 | GTAATGCTTG | 1.012 ± 0.01
80 | TTTTATCTAG | 1.01 ± 0.012
81 | TTTTCGCTGG | 1.01 ± 0.049
82 | GAACGCGTCC | 1.1 ± 0.015
83 | GTTTATGTAG | 1.01 ± 0.0096
84 | TATGAAGAAG | 0.994 ± 0.054
85 | TTGCCAGATT | 0.994 ± 0.037
86 | TAAAGTCATA | 1.01 ± 0.022
87 | GATTGAGAGT | 1.019 ± 0.0087
88 | TTAACATGGG | 1 ± 0.033
89 | GCAAGTAGAG | 1.0067 ± 0.001
90 | CGGTGTTGTT | 1.018 ± 0.0014
91 | TGTGTATGGC | 1.12 ± 0.19
92 | GAGGAAATTG | 0.963 ± 0.054
93 | GGGTCCAGGG | 1.228 ± 0.0082
94 | TTTGGAGCTT | 4.01 ± 2.7
95 | GACAATGGTG | 1.021 ± 0.0049
96 | TTGGTGAGTT | 0.981 ± 0.029
97 | AAGGTAGGCG | 0.987 ± 0.011
98 | GGGGACGTCG | 0.9972 ± 0.0087
99 | TGATTCTAAT | 1 ± 0.042
100 | AGGGGGTGTT | 1.02 ± 0.015

Row | Sequence | switch fluorescence ratio
101 | CATGGTGGCG | 1.01 ± 0.022
102 | CGGTCGCAGT | 1.02 ± 0.055
103 | TGGGGACTCC | 0.997 ± 0.032
104 | GGGGTTTGTA | 0.98 ± 0.027
105 | CCATTGTAAG | 1.02 ± 0.05
106 | CGTAATGCCT | 1.03 ± 0.098
107 | TAGGTCTGCA | 1.033 ± 0.0058
108 | GGTGGGTTGT | 1.03 ± 0.076
109 | TTATACCTTA | 1.065 ± 0.0043
110 | TTCTTGCTAC | 1.78 ± 0.036
111 | AGCGCGATTC | 1.99 ± 0.13
112 | TCGGAGGAAA | 0.999 ± 0.047
113 | CGTCGGAGGG | 0.977 ± 0.013
114 | ATGGGCTGCT | 1.05 ± 0.062
115 | ATTCCCGGAT | 1.04 ± 0.046
116 | CTCGTAGGGG | 1.01 ± 0.039
117 | GGGTATCGAG | 1.01 ± 0.019
118 | TTTTTCCGGG | 1.1 ± 0.11
119 | GCGGTAGAGC | 1.017 ± 0.0099
120 | CAGGATCTTG | 0.974 ± 0.031
121 | ATGTATTTTT | 1 ± 0.031
122 | GAGTCAATTT | 1.0118 ± 0.00063
123 | TGCAGACGGT | 1.2 ± 0.14
124 | TTCGGGCTGT | 0.996 ± 0.011
125 | AGGGATAGCT | 0.967 ± 0.006

Row | Sequence | switch fluorescence ratio
126 | TGAGATTAAA | 1.01 ± 0.0098
127 | TCGATTCGAT | 1.35 ± 0.57
128 | TTAGTTTCGG | 1.01 ± 0.019
129 | TTATGTATTT | 0.995 ± 0.015
130 | AGTGGACTAG | 0.989 ± 0.026
131 | TGCATAAATT | 0.9873 ± 0.0034
132 | ATGAAATTGT | 1.02 ± 0.033
133 | ACCTAGCGAT | 1.57 ± 0.03
134 | AAGTCAGGGG | 1.05 ± 0.13
135 | GCACGGGAGG | 1.01 ± 0.032
136 | GTGTTATCGT | 0.969 ± 0.045
137 | TAGTATGAGG | 0.976 ± 0.021
138 | TAGGCAACGA | 1.04 ± 0.063
139 | CATGTGTGAG | 0.949 ± 0.026
140 | CAATGTGACG | 1.03 ± 0.052
141 | GACTTTACGG | 1.06 ± 0.048
142 | CGTTTCTGGG | 1.007 ± 0.0015
143 | AGGTACACCT | 1.08 ± 0.053
144 | CTATGATATT | 0.947 ± 0.042
145 | TTGGGGAGTT | 1.01 ± 0.044
146 | TTTTTTCGGA | 1.01 ± 0.073
147 | ATTAAGTTTG | 1 ± 0.031
148 | CTTGGCTGTT | 0.986 ± 0.018
149 | CCTCTTAACT | 1.13 ± 0.037
150 | GCGGGCGTCG | 0.994 ± 0.048

Row | Sequence | switch fluorescence ratio
151 | GGGGGGCCCG | 1.35 ± 0.45
152 | ATATAAGTAG | 1.03 ± 0.014
153 | CGGGCGCGTT | 0.984 ± 0.054
154 | TATCGAGCAT | 1.028 ± 0.0096
155 | TGGAGGGGCA | 1.03 ± 0.022
156 | ATTGTTTTGG | 0.981 ± 0.028
157 | CGGAGGGAGT | 1.78 ± 1.1
158 | AAGGGCTCAA | 1.02 ± 0.011
159 | CGCGAAGAAC | 1.039 ± 0.0088
160 | AGGGGGAAAC | 1.01 ± 0.027
161 | AAGCGCTGTG | 1.03 ± 0.047
162 | ACGAGTCTGG | 1.08 ± 0.039
163 | TATTTAGGGT | 1.01 ± 0.021
164 | GAGTGCCGGG | 1.03 ± 0.016
165 | GGTTCAACGG | 0.982 ± 0.014
166 | TAAACCGGGT | 1.05 ± 0.074
167 | CAGATTTCTA | 1.02 ± 0.019
168 | TCGGCTATTT | 1.03 ± 0.019
169 | TGGGGGAGTA | 0.952 ± 0.018
170 | GATCACTATA | 1.03 ± 0.054
171 | CAATTTTCGG | 0.989 ± 0.022
172 | ATGGGGGCGT | 0.994 ± 0.043
173 | TACTTAAAAC | 1.011 ± 0.0078
174 | CCTTATAATT | 1.02 ± 0.035
175 | TTCGGTAAGG | 1.02 ± 0.013

Row | Sequence | switch fluorescence ratio
176 | TGTGAGACTT | 1.01 ± 0.052
177 | TGGGATTGCG | 1.04 ± 0.012
178 | TGGTATAATC | 1.001 ± 0.0038
179 | CTAGGGGGGG | 0.988 ± 0.021
180 | CAATGGGACC | 1.011 ± 0.0013
181 | GAGTCCTCTT | 1.01 ± 0.032
182 | GCTGTGTGGG | 1.03 ± 0.032
183 | CTTATTTCGT | 1.001 ± 0.0018
184 | AGGGTTACGA | 0.976 ± 0.038
185 | AGGGAGCTGT | 1.023 ± 0.0015
186 | GCCAGGAAAA | 0.957 ± 0.053
187 | CGCTATTGTT | 1.028 ± 0.0065
188 | TATTCGGTCG | 0.993 ± 0.025
189 | GATAAATGTA | 0.9808 ± 0.0084
190 | AGGTTTATGC | 0.977 ± 0.066
191 | CAGTACGGGG | 1 ± 0.01
192 | AGTGCATTCT | 0.995 ± 0.049
193 | TTCGAAGGAA | 1.1 ± 0.028
194 | ATGGGGTGCG | 0.9998 ± 0.0014
195 | TTTTTCCGTT | 1.12 ± 0.27
196 | AAGCGGAAGG | 1.05 ± 0.02
197 | GGGAAGGGAG | 0.983 ± 0.028
198 | GGAGATTGAA | 0.992 ± 0.019
199 | GCATTAAAGG | 0.981 ± 0.04
200 | ATTTGTTGCA | 1.0298 ± 0.00091

— the supplement of paper PMC10126150
